# Experimental data taken from paper PMC12412624, “Engineered Cas12j‐8 is a Versatile Platform for Multiplexed Genome Modulation in Mammalian Cells”.
# Residue numbers refer to the chain shown, from its start.
# How the values were obtained:
# [1] = tested on: T1, dCas12j-8 E100R E100R;D369A;E567A;D658A (bacteriophage (metagenome)); conditions: HEK293T cells; panel 1c (compare within a panel only); scale: mean GFP / mean GFP of wild type, printed, no background subtraction
# T1 sequence: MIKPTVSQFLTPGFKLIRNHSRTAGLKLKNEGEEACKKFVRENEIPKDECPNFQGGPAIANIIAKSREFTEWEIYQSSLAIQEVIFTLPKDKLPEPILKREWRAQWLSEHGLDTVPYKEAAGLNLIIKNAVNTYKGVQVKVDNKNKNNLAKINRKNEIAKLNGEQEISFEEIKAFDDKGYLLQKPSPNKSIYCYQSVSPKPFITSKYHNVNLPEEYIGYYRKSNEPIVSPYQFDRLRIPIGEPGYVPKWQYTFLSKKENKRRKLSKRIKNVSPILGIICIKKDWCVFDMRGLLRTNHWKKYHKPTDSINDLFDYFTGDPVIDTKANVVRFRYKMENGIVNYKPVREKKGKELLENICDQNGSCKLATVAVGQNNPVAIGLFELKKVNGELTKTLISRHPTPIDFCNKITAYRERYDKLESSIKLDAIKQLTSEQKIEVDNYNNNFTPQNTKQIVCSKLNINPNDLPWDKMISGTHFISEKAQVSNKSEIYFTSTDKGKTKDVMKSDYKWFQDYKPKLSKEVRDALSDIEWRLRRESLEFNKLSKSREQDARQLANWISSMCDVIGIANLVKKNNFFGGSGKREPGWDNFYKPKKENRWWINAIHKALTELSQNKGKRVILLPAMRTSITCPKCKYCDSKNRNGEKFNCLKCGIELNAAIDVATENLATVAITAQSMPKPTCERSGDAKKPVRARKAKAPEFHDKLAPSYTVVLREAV
# [2] = tested on: T2, dCas12j-8 E258R+D313R+D495R+E547R E258R;D313R;D495R;E547R;D369A;E567A;D658A (bacteriophage (metagenome)); conditions: HEK293T cells; panel 1e (compare within a panel only); scale: mean GFP / mean GFP of wild type, printed, no background subtraction
# T2 sequence: T1 sequence with R100E, E258R, D313R, D495R, E547R
# [3] = tested on: T3, dCas12j-8 E258R+D495R E258R;D495R;D369A;E567A;D658A (bacteriophage (metagenome)); conditions: HEK293T cells; panel 1d (compare within a panel only); scale: mean GFP / mean GFP of wild type, printed, no background subtraction
# T3 sequence: T1 sequence with R100E, E258R, D495R
sequence,measurement,setting,value
CUUUCAAGACUAAUAGAUUGCUCCUUACGAGGAGACACUCCCUAUCAGUGAUAGAG / TTNACTCCCTATCAGTGATAGAG / CTCTATCACTGATAGGGAGTNAA [TetO],binding signal,[1],0.834
same,binding signal,[2],4.81
same,binding signal,[3],3.18
